Laboratory results published in patent US20150344570A1 (published 2015).

T1: FcγRIIb extracellular domain with C-terminal His tag (human, UniProt P31994 43-217)
T1 construct: extracellular domain; also called 2b; FcgRIIb
T1 sequence (looked up): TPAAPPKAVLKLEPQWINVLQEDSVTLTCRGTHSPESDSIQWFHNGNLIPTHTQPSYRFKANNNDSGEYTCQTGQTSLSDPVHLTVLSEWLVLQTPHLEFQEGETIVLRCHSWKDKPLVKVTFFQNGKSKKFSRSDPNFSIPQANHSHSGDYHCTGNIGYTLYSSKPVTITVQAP

B1: GpH7-A5/GpH7-B3 variant L234_05P/GpL16-k0 (antibody, human IgG1, kappa)
heavy 1: not shown
heavy 2: not shown
light: DIVMTQSPLSLPVTPGEPASISCQASESLVHSNRNTYLHWYLQKPGQSPQLLIYKVSNRFSGVPDRFSGSGSGTDFTLKISRVEAEDVGVYYCSQNTHVPPTFGQGTKVEIERTVAAPSVFIFPPSDEQLKSGTASVVCLLNNFYPREAKVQWKVDNALQSGNSQESVTEQDSKDSTYSLSSTLTLSKADYEKHKVYACEVTHQGLSSPVTKSFNRGEC
notes: also called He Ab
B2: GpH7-A5/GpH7-B3 variant L235_19Q/GpL16-k0 (antibody, human IgG1, kappa)
heavy 1: not shown
heavy 2: not shown
light: B1 light
notes: also called He Ab
B3: GpH7-A5/GpH7-B3 variant L234_15Y/GpL16-k0 (antibody, human IgG1, kappa)
heavy 1: not shown
heavy 2: not shown
light: B1 light
notes: also called He Ab; GpH7-A5/GpH7-B3-01-15Y/GpL16-k0
B4: GpH7-A5/GpH7-B3 variant L235_03V/GpL16-k0 (antibody, human IgG1, kappa)
heavy 1: not shown
heavy 2: not shown
light: B1 light
notes: also called He Ab
B5: GpH7-A5/GpH7-B3 variant L235_13S/GpL16-k0 (antibody, human IgG1, kappa)
heavy 1: not shown
heavy 2: not shown
light: B1 light
notes: also called He Ab
B6: GpH7-A5/GpH7-B3 variant L235_11K/GpL16-k0 (antibody, human IgG1, kappa)
heavy 1: not shown
heavy 2: not shown
light: B1 light
notes: also called He Ab
B7: GpH7-A5/GpH7-B3 variant L234_16H/GpL16-k0 (antibody, human IgG1, kappa)
heavy 1: not shown
heavy 2: not shown
light: B1 light
notes: also called He Ab
B8: GpH7-A5/GpH7-B3 variant L235_18N/GpL16-k0 (antibody, human IgG1, kappa)
heavy 1: not shown
heavy 2: not shown
light: B1 light
notes: also called He Ab
B9: GpH7-A5/GpH7-B3 variant L234_19Q/GpL16-k0 (antibody, human IgG1, kappa)
heavy 1: not shown
heavy 2: not shown
light: B1 light
notes: also called He Ab
B10: GpH7-A5/GpH7-B3 variant L235_01G/GpL16-k0 (antibody, human IgG1, kappa)
heavy 1: not shown
heavy 2: not shown
light: B1 light
notes: also called He Ab
B11: GpH7-A5/GpH7-B3 variant L234_12R/GpL16-k0 (antibody, human IgG1, kappa)
heavy 1: not shown
heavy 2: not shown
light: B1 light
notes: also called He Ab
B12: GpH7-A5/GpH7-B3 variant L235_14T/GpL16-k0 (antibody, human IgG1, kappa)
heavy 1: not shown
heavy 2: not shown
light: B1 light
notes: also called He Ab
B13: GpH7-A5/GpH7-B3 variant L234_11K/GpL16-k0 (antibody, human IgG1, kappa)
heavy 1: not shown
heavy 2: not shown
light: B1 light
notes: also called He Ab
B14: GpH7-A5/GpH7-B3 variant L234_07I/GpL16-k0 (antibody, human IgG1, kappa)
heavy 1: not shown
heavy 2: not shown
light: B1 light
notes: also called He Ab
B15: GpH7-A5/GpH7-B3 variant L235_05P/GpL16-k0 (antibody, human IgG1, kappa)
heavy 1: not shown
heavy 2: not shown
light: B1 light
notes: also called He Ab

Tests used:
[1] = target: T2, FcγRIIIa extracellular domain with C-terminal His tag (human, UniProt P08637 17-208); assay: SPR, binding relative to GpH7-A5/GpH7-B3/GpL16-k0 = 100
T2 construct: extracellular domain; also called 3a; FcgRIIIa

[2] = target: T1, FcγRIIb extracellular domain with …; assay: as above
[3] = target: T2, FcγRIIIa extracellular domain with …; assay: SPR; ratio of He/Con_3a (FcγRIIIa) to He/Con_2b (FcγRIIb)
Description: The heterodimerized antibodies He Abs in which one of the H chains was introduced with an alteration were assayed for their binding activities to each activating FcγR and inhibitory FcγR according to the method described in Example 4. […] The activating FcγRs in FIGS. 26, 27, 28, and 29 are FcγRIa, FcγRIIa (R), FcγRIIa (H), and FcγRIIIa, respectively.
Analysis of interaction between objective antibody and the FcγR was carried out using Biacore T100 (GE Healthcare). HBS-EP+ (GE Healthcare) was used as the running buffer, and the measurement temperature was set to 25° C. Chips produced by immobilizing the antigen peptide by the amine coupling method to a Series S Sencor Chip CM5 (GE Healthcare), or alternatively, chips produced by allowing preliminarily biotinylated antigen peptides to interact with and immobilize onto a Series S Sensor Chip SA (certified) (GE Healthcare) were used. Antibodies of interest were captured onto an antigen peptide-immobilized chip, and allowed to interact to each FcγR diluted with running buffer. To regenerate and repeatedly use the chip, the antibodies captured on the chip were washed off by reacting 10 mM glycine-HCl, pH 1.5.

T2 sequence (P08637 17-208): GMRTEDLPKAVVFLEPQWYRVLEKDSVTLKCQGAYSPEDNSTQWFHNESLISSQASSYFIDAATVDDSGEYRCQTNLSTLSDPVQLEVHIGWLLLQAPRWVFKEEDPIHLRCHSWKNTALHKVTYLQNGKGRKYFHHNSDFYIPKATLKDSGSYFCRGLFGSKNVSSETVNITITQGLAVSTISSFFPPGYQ

| Binder | He/Con_3a [1] | He/Con_2b [2] | He_3a/2b (IIIa/IIb) [3] |
| --- | --- | --- | --- |
| B1 | 88.1 % of control | 72.9 % of control | 1.21 |
| B2 | 70.5 % of control | 42.6 % of control | 1.65 |
| B3 | 130 % of control | 96.3 % of control | 1.35 |
| B4 | 98 % of control | 66.4 % of control | 1.48 |
| B5 | 69.6 % of control | 48.2 % of control | 1.44 |
| B6 | 38.1 % of control | 6.3 % of control | 6.06 |
| B7 | 79.5 % of control | 59.4 % of control | 1.34 |
| B8 | 67.3 % of control | 54.9 % of control | 1.23 |
| B9 | 79.8 % of control | 60.3 % of control | 1.32 |
| B10 | 58.8 % of control | 35.4 % of control | 1.66 |
| B11 | 36.9 % of control | 18.9 % of control | 1.95 |
| B12 | 75.8 % of control | 46.8 % of control | 1.62 |
| B13 | 30.5 % of control | 16.2 % of control | 1.88 |
| B14 | 103 % of control | 80.9 % of control | 1.27 |
| B15 | 71.1 % of control | 54.7 % of control | 1.3 |
